Laboratory results published in patent US20140303356A1.

Key:
[1] = biological target: CH2-CH3 construct G1-F405L (human); assay: native MS, monomer-dimer equilibrium of CH2-CH3 fragment, homodimer
[2] = biological target: IgG1Δhinge fragment of IgG1-7D8-K409R; assay: native MS, CH2-CH3 fragment mixed with IgG1Δhinge fragment for 24 hours, heterodimer

Substance CH2-CH3 construct G1-F405L has a Kd [1] of 850 nM and a Kd [2] of 12 nM.
